{
  "source": "patent US11385226",
  "biological_target": "recombinant Human IL-8 (BD Pharmingen cat #554609) (human) (UniProt P10145)",
  "sequence (P10145 28-99 limits assumed)": "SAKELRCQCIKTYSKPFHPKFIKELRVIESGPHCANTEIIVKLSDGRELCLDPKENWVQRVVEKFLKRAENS",
  "assay": "sandwich immunoassay on Capture Antibody 1 magnetic beads; potentiometric read-out of bound glucose oxidase conjugate after adding glucose; no potential without IL-8",
  "data": [
    {"substance": "Capture Antibody 2, an anti-Mouse α-Human IL-8 Monoclonal Antibody (for ICC, BD Pharmingen cat #550419), conjugated to Glucose Oxidase from Aspergillus niger (from UniProt P13006 23-605)", "values": [
      {"measurement": "potential", "result": "1 to 55", "unit": "mV"}
    ]}
  ]
}
